From patent US20200317768A1 (published 2020)

T1: human FcγRIIb extracellular domain, C-terminal His-tag (human, UniProt P31994 43-217)
T1 construct: also called FcgRIIb (human); not shown: His-tag added to C-terminus
T1 sequence: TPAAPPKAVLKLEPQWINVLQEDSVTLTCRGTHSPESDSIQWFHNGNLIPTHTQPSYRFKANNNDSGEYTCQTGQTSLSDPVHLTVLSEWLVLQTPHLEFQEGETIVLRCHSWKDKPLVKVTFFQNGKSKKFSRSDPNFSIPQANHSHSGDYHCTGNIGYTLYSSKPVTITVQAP

T2: human FcγRIIaH extracellular domain, C-terminal His-tag (human, UniProt P12318 34-217)
T2 construct: also called human FcγRIIa (type H); FcgRIIaH; not shown: His-tag added to C-terminus
T2 sequence: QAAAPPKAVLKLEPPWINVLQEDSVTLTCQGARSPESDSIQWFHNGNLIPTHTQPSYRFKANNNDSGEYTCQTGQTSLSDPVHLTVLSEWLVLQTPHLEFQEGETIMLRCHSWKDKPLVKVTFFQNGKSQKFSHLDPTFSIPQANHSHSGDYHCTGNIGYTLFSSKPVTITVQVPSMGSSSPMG

T3: cynomolgus monkey FcγRIIb extracellular domain, C-terminal His-tag (cynomolgus monkey)
T3 construct: also called cyno FcγRIIb; cynoFcγRIIb; not shown: His-tag added to C-terminus
T3 chain: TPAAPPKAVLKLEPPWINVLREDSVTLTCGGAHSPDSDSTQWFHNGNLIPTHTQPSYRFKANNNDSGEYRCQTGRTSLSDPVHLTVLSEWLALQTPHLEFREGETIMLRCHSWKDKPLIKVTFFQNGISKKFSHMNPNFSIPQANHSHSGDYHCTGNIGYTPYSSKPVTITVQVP

T4: human FcγRIIaR extracellular domain, C-terminal His-tag (human, UniProt P12318 34-217)
T4 construct: also called human FcγRIIa (type R); FcgRIIaR; not shown: His-tag added to C-terminus
T4 chain: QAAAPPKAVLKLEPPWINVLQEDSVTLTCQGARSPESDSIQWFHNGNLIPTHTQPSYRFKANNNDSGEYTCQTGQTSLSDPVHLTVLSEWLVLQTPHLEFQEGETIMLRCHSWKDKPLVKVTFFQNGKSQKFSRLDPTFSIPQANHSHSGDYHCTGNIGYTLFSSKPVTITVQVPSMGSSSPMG

T5: cynomolgus monkey FcγRIIa1 extracellular domain, C-terminal His-tag (cynomolgus monkey)
T5 construct: also called cyno FcγRIIa1; cynoFcgRIIa1; not shown: His-tag added to C-terminus
T5 chain: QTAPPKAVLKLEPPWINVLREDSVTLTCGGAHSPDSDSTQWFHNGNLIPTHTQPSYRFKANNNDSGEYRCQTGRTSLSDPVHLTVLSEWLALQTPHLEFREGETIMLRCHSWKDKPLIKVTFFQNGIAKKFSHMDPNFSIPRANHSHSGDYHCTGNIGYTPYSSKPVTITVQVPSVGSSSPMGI

T6: cynomolgus monkey FcγRIIa2 extracellular domain, C-terminal His-tag (cynomolgus monkey)
T6 construct: also called cyno FcγRIIa2; cynoFcgRIIa2; not shown: His-tag added to C-terminus
T6 chain: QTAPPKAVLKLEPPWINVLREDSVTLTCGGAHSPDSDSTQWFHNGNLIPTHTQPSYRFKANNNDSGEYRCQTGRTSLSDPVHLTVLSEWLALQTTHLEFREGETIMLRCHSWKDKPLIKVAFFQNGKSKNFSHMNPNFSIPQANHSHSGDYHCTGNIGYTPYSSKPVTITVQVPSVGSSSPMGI

B1: M103205H795-MY209/M103202L889-SK1 (antibody, human IgG1, kappa)
heavy: QVTLKESGPVLVKPTETLTLTCTVSGIDLSHDDISWVRQAPGKGLEWVGIISYAGSTYYASWAKGRLTISKDTSKNQVVLTMTNMDPVDTATYYCARGVPAYSHGGDLWGQGTLVTVSSASTKGPSVFPLAPSSKSTSGGTAALGCLVKDYFPEPVTVSWNSGALTSGVHTFPAVLQSSGLYSLSSVVTVPSSSLGTQTYICNVNHKPSNTKVDKKVEPKSCDKTHTCPPCPAPELLNGPSVFLFPPKPKDTLMISRTPEVTCVVVDVSDEDPEVKFNWYVDGVEVHNAKTKPREELYNSTYRVVSVLTVLHQDWLNGKEYKCKVSNTALPKPIEKTISKAKGQPREPQVYTLPPSREEMTKNQVSLTCLVKGFYPSDIAVEWESNGQPENNYKTTPPVLDSDGSFFLYSKLTVDKSRWQQGNVFSCSVMHEALHNHYTQKSLSLSP
light: DIVMTQSPATLSLSPGERATLSCTSSQSVYHANWLSWFQQKPGQPPKLLIYWASTLAYGVPSRFSGSGSGTDFTLTISSLQPEDAATYYCAGGYGGGRYAFGQGTKVEIKRTVAAPSVFIFPPSDEQLKSGTASVVCLLNNFYPREAKVQWKVDNALQSGNSQESVTEQDSKDSTYSLSSTLTLSKADYEKHKVYACEVTHQGLSSPVTKSFNRGEC
B2: M103205H795-MY219/M103202L889-SK1 (antibody, human IgG1, kappa)
heavy: QVTLKESGPVLVKPTETLTLTCTVSGIDLSHDDISWVRQAPGKGLEWVGIISYAGSTYYASWAKGRLTISKDTSKNQVVLTMTNMDPVDTATYYCARGVPAYSHGGDLWGQGTLVTVSSASTKGPSVFPLAPSSKSTSGGTAALGCLVKDYFPEPVTVSWNSGALTSGVHTFPAVLQSSGLYSLSSVVTVPSSSLGTQTYICNVNHKPSNTKVDKKVEPKSCDKTHTCPPCPAPELLGYPSVFLFPPKPKDTLMISRTPEVTCVVVDVSDEDPEVKFNWYVDGVEVHNAKTKPREEQYNSTYRVVSVLTVLHQDWLNGKEYKCKVSNKALPKPIEKTISKAKGQPREPQVYTLPPSREEMTKNQVSLTCLVKGFYPSDIAVEWESNGQPENNYKTTPPVLDSDGSFFLYSKLTVDKSRWQQGNVFSCSVMHEALHNHYTQKSLSLSP
light: DIVMTQSPATLSLSPGERATLSCTSSQSVYHANWLSWFQQKPGQPPKLLIYWASTLAYGVPSRFSGSGSGTDFTLTISSLQPEDAATYYCAGGYGGGRYAFGQGTKVEIKRTVAAPSVFIFPPSDEQLKSGTASVVCLLNNFYPREAKVQWKVDNALQSGNSQESVTEQDSKDSTYSLSSTLTLSKADYEKHKVYACEVTHQGLSSPVTKSFNRGEC
B3: M103205H795-MY227/M103202L889-SK1 (antibody, human IgG1, kappa)
heavy: QVTLKESGPVLVKPTETLTLTCTVSGIDLSHDDISWVRQAPGKGLEWVGIISYAGSTYYASWAKGRLTISKDTSKNQVVLTMTNMDPVDTATYYCARGVPAYSHGGDLWGQGTLVTVSSASTKGPSVFPLAPSSKSTSGGTAALGCLVKDYFPEPVTVSWNSGALTSGVHTFPAVLQSSGLYSLSSVVTVPSSSLGTQTYICNVNHKPSNTKVDKKVEPKSCDKTHTCPPCPAPELLGYPSVFLFPPKPKDTLMISRTPEVTCVVVDVSDEDPEVKFNWYVDGVEVHNAKTKPREEQYNSTYRVVSVLTVLHQDWLNGKEYKCKVSNKALPKPIEKTISKAKGQPREPQVYTLPPSREEMTKNQVSLTCLVKGFYPSDIAVEWESNGQPENNYKTTPKVLDSDGSFFLYSKLTVDKSRWQQGNVFSCSVMHEALHNHYTQKSLSLSP
light: DIVMTQSPATLSLSPGERATLSCTSSQSVYHANWLSWFQQKPGQPPKLLIYWASTLAYGVPSRFSGSGSGTDFTLTISSLQPEDAATYYCAGGYGGGRYAFGQGTKVEIKRTVAAPSVFIFPPSDEQLKSGTASVVCLLNNFYPREAKVQWKVDNALQSGNSQESVTEQDSKDSTYSLSSTLTLSKADYEKHKVYACEVTHQGLSSPVTKSFNRGEC
B4: M103205H795-MY213/M103202L889-SK1 (antibody, human IgG1, kappa)
heavy: QVTLKESGPVLVKPTETLTLTCTVSGIDLSHDDISWVRQAPGKGLEWVGIISYAGSTYYASWAKGRLTISKDTSKNQVVLTMTNMDPVDTATYYCARGVPAYSHGGDLWGQGTLVTVSSASTKGPSVFPLAPSSKSTSGGTAALGCLVKDYFPEPVTVSWNSGALTSGVHTFPAVLQSSGLYSLSSVVTVPSSSLGTQTYICNVNHKPSNTKVDKKVEPKSCDKTHTCPPCPAPELLNGPSVFLFPPKPKDTLMISRTPEVTCVVVDVSDEDPEVKFNWYVDGVEVHNAKTKPREEQYNSTYRVVSVLTVLHQDWLNGKEYKCKVSNKALPKPIEKTISKAKGQPREPQVYTLPPSREEMTKNQVSLTCLVKGFYPSDIAVEWESNGQPENNYKTTPKVLDSDGSFFLYSKLTVDKSRWQQGNVFSCSVMHEALHNHYTQKSLSLSP
light: DIVMTQSPATLSLSPGERATLSCTSSQSVYHANWLSWFQQKPGQPPKLLIYWASTLAYGVPSRFSGSGSGTDFTLTISSLQPEDAATYYCAGGYGGGRYAFGQGTKVEIKRTVAAPSVFIFPPSDEQLKSGTASVVCLLNNFYPREAKVQWKVDNALQSGNSQESVTEQDSKDSTYSLSSTLTLSKADYEKHKVYACEVTHQGLSSPVTKSFNRGEC

What was measured:
Assay in all cases: SPR (Biacore), KD of SG1 / KD of variant;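 further: relative to parent M103205H795-SG1 carrying the SG1 human heavy chain constant region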
[1] = target: T1, human FcγRIIb extracellular domain, …
Description: (§1) The kinetic analysis of interactions between these antibodies and FcγR was carried out using BIACORE® T200 or BIACORE® 4000 (GE Healthcare). HBS-EP+ (GE Healthcare) was used as the running buffer, and the measurement temperature was set to 25° C. A chip produced by immobilizing Protein A. Protein A/G or mouse anti-human IgG kappa light chain (BD Biosciences) onto a Series S Sensor Chip CM4 or CM5 (GE Healthcare) by the amine-coupling method was used. […] After the measurement, the antibody captured on the chip was washed off by allowing reaction with 10 mM glycine-HCl, pH1.5 and 25 mM NaOH so that the chip was regenerated and used repeatedly. The sensorgrams obtained as measurement results were analyzed by the 1:1 Langmuir binding model using the BIACORE® Evaluation Software to calculate the binding rate constant ka (L/mol/s) and dissociation rate constant kd (l/s), and the dissociation constant KD (mol/L) was calculated from these values. […] Regarding such interactions, KD values were calculated using the following 1:1 binding model described in BIACORE® T100 Software Handbook BR1006-48 Edition AE.
(§2) The behavior of interacting molecules according to the 1:1 binding model on BIACORE® can be described by Equation 1: Req=C·R max/(KD+C)+RI, wherein, Req is a plot of steady-state binding levels to analyte concentration. C is concentration, RI is bulk refractive index contribution in the sample, and Rmax is analyte binding capacity of the surface. When this equation is rearranged, KD can be expressed as Equation 2: KD=C·Rmax/(Req−RI)−C. KD can be calculated by substituting the values of Rmax, RI, and C into Equation 1 or Equation 2. From the current measurement conditions, RI=0, C=2 μmol/L can be used.

[2] = target: T2, human FcγRIIaH extracellular domain, …
Description: as §1, §2

[3] = target: T3, cynomolgus monkey FcγRIIb extracellular …
Description: as §1, §2

[4] = target: T7, cynomolgus monkey FcγRIIIaS extracellular domain, C-terminal His-tag (cynomolgus monkey, UniProt A3RFZ7 21-206 (rhesus entry))
T7 construct: also called cyno FcγRIIIaS; cynoFcγRIIIaS; not shown: His-tag added to C-terminus
Description: as §1, §2

[5] = target: T4, human FcγRIIaR extracellular domain, …
Description: as §1, §2

[6] = target: T5, cynomolgus monkey FcγRIIa1 …
Description: as §1, §2

[7] = target: T6, cynomolgus monkey FcγRIIa2 …
Description: as §1, §2

[8] = target: T8, human FcγRIIIaV extracellular domain, C-terminal His-tag (human, UniProt P08637 17-208)
T8 construct: also called FcgRIIIaV; not shown: His-tag added to C-terminus
Description: as §1, §2

T8 sequence (P08637 17-208 F176V): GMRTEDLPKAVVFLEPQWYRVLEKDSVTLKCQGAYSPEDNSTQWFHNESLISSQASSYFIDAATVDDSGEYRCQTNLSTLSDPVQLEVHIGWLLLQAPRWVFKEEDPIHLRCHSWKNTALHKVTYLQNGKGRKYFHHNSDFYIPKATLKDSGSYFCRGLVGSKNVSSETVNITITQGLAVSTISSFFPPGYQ
T7 sequence (A3RFZ7 21-206): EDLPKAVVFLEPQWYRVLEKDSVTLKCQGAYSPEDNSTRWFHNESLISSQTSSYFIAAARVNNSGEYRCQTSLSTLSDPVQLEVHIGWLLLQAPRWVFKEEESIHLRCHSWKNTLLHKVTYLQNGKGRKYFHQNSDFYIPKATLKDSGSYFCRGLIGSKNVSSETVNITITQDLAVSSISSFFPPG

| Binder | KD fold (SG1 = 1) [1] [fold] | KD fold (SG1 = 1) [2] [fold] | KD fold (SG1 = 1) [3] [fold] | KD fold (SG1 = 1) [4] [fold] | KD fold (SG1 = 1) [5] [fold] | KD fold (SG1 = 1) [6] [fold] | KD fold (SG1 = 1) [7] [fold] | KD fold (SG1 = 1) [8] [fold] |
| --- | --- | --- | --- | --- | --- | --- | --- | --- |
| B1 | 9.2 | 1.2 | 9.5 | 0.16 | 1.3 | 5.1 | 7.4 | 0.06 |
| B2 | 13.5 | 0.2 | 1.4 | 0.06 | 6.9 | 0.5 | 1.3 | 0.03 |
| B3 | 35.4 | 0.5 | 3.5 | 0.09 | 17.7 | 1.7 | 2 | 0.04 |
| B4 | 12.8 | 2 | 11.9 | 0.19 | 1.6 | 6 | 9.6 | 0.03 |
